Patent US20190330320A1
Values belong to the substance of their own block, whether it stands above or below them.

Key:
[1] = target: pathological hyperphosphorylated tau from human Alzheimer's disease brain (AD-P3 antigens) (human) (UniProt P10636); assay: fluid phase inhibition of AD-P3 tau capture on MSD plates coated with mouse C10-2; two-site fit
[2] = target: pathological hyperphosphorylated tau from human Alzheimer's disease brain (AD-P3 antigens) (human) (UniProt P10636); assay: fluid phase inhibition of AD-P3 tau capture on MSD plates coated with mouse C10-2; two-site fit, high affinity part
[3] = target: pathological hyperphosphorylated tau from human Alzheimer's disease brain (AD-P3 antigens) (human) (UniProt P10636); assay: fluid phase inhibition of AD-P3 tau capture on MSD plates coated with mouse C10-2; two-site fit, low affinity part
[4] = target: hyperphosphorylated human tau P301L (4R0N) from rTg4510 mouse brain (64 and 70 kDa species) (human) (UniProt P10636); assay: binding to P301L human mutant tau isolated from 10 month old Tg4510 mice
hyperphosphorylated human tau P301L (4R0N) from rTg4510 mouse brain (64 and 70 kDa species) (human), sequence (P10636 other isoform, or with tags, fused parts or gaps P301L P301L): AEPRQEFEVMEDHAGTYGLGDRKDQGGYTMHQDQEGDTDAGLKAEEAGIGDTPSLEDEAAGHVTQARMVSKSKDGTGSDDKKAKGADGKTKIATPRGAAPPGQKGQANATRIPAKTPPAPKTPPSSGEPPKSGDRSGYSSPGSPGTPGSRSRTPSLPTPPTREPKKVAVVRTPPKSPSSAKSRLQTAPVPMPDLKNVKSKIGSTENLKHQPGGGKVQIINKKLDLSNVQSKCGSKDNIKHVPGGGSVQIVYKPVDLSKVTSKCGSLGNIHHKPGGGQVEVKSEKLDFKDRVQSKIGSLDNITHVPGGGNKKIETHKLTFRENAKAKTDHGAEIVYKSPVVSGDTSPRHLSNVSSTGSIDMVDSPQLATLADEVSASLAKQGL

[5] = target: pathological hyperphosphorylated tau from human Alzheimer's disease brain (AD-P3 antigens) (human) (UniProt P10636); assay: fluid phase inhibition of Ptau antigen capture in C10-2 coated plate

pathological hyperphosphorylated tau from human Alzheimer's disease brain (AD-P3 antigens) (human), sequence (P10636 other isoform, or with tags, fused parts or gaps limits assumed): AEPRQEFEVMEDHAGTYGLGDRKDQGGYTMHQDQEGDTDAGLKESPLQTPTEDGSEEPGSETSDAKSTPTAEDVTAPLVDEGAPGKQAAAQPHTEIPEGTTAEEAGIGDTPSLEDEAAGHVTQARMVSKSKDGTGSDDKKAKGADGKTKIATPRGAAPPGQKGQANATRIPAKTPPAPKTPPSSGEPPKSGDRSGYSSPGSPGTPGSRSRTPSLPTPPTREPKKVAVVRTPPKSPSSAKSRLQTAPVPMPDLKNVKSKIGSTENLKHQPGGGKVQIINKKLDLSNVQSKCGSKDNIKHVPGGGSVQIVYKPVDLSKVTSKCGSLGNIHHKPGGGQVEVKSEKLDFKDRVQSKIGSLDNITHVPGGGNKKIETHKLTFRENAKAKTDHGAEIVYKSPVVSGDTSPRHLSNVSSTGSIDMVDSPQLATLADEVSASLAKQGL
IPN002 (antibody), sequence (VH): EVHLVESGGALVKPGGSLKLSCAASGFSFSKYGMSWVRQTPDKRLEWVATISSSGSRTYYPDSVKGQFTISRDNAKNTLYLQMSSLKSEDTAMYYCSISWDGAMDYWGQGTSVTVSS
IPN002 (antibody), sequence (VL): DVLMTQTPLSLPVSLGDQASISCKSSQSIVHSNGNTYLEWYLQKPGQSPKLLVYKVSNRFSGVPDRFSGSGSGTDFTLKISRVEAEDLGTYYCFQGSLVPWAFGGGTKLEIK
HJ8.5 (antibody), sequence (VH): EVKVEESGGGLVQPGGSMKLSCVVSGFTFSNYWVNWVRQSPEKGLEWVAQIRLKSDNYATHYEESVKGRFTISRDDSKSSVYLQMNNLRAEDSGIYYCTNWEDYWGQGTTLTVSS
HJ8.5 (antibody), sequence (VL): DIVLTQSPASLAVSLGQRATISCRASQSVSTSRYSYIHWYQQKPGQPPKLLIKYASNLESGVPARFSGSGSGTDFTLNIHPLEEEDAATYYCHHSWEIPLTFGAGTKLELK

- share of the high affinity binding in the total binding [1]: < 25%
- IC50 [2]: 14 nM
- IC50 [3]: 630 nM
Substance: Antibody C10-2 (humanized C10-2)

- TG/wt (binding to P301L tau from Tg4510 mice over wild type) [4]: 37
Substance: IPN002 (antibody)

- IC50 [5]: 500 to 1000 nM
Substance: PHF-13 (antibody)

- TG/wt (binding to P301L tau from Tg4510 mice over wild type) [4]: 51
Substance: HJ8.5 (antibody)
